The results in this text go back to the RNAGym collection of RNA variant scans (doi:10.1073/pnas.2313332121).

This sample holds only a part of the variants without activity.

The chains are these.
B1: TPR 5TU (parent)
chain: GGAUCUUCUCGAUCUAACAAAAAAGACAAAUCUGCCACAAAGCUUGAGAGCAUCUUCGGAUGCAGAGGCGGCAGCCUUCGGUGGCGCGAUAGCGCCAACGUUCUCAACUAUGACACGCAAAACGCGUGCUCCGUUGAAUGGAGUUUAUCAUG

The data set covers variants of B1. As to the kind of experiment: polymerase ribozyme fitness, log enrichment relative to wild type (log ratio); higher = more active; in vitro selection for triplet polymerase activity. A digest of the protocol:
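Frozen incubation at −7 °C formed the core of a single, triplicate in vitro selection round applied to PCR-built, transcribed mutant libraries of each subunit of a heterodimeric triplet polymerase ribozyme. Extended constructs were gel-excised, captured with streptavidin beads and amplified by RT-PCR, and input and output libraries were Illumina-sequenced with a filter of ≥10 input reads and ≥1 read per output. Fitness is the logarithm of genotype enrichment relative to wild-type enrichment, with inverse-variance-weighted replicate averaging, and the logarithm is base 2.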
As for GGAUCCUCUCGAUCUAACAAAAAAGACAAAUCUGCCACAAAGCUUGAGAGCAUCUUCGGAUGCAGCGGCGGAAGCCCUCGGAGGCGCGAUAGCGCCAACGUUCUCAACUACGACACGCAAAACGCAUGCUCCGUUGAAUGGAGUUUAUCAUG, the “polymerase ribozyme fitness (log ratio)” value is ≤ -4.2.
To GGAUCCUCUCGAUCUAACAAAAAGGACAAAACUGCCACAAAGCUUGAGAGCCUCUUCGGAUGCAGAGGCGGCAGCCUUCGGUGGCGUGAGAUAGCCAACGUUCUCAACUAUGACACGCAAAACGCGUGCUCCGUUGAAUGGAGUUUAUCAUG belongs ≤ -4.2.
For the variant GGAUCCUCUCGAUCUAACAAAAAAGACAAAUCUGCCACAAAGCUUGAGAGCAUCUUUGGAUGCAGAGGCGGCAGCCUUCGGUUUCGCGAUAGCGCCAACGUUCUCAACUAUGACACGCAAUACGCGUGCUCCGUUGAAUGGAGUUUAUCAUG, the “polymerase ribozyme fitness (log ratio)” value is -3.18.
To GGAUCAUCUCGAUCUAACAAAAAAGACAAAUCUGCCACAAAGCUUGAGAGCAUCGUCGGAUGCAGAGGCGGCAGCCUUCGGUGGCGCGAUAGCGCCAACGUUCUCAACUAUGACACGCAAAACGCGUGCUCCGUUGAAAGGAGUUUAUCAUG belongs ≤ -4.2; to GGAUCCUCUCGAUCUAAUAAAAAAGACAAAUCUGCCACAAAGCUUGAGAGCAUCUUCGCAUGCAGUGGCGGCCGCCUUCGGUGGCGCGAUAGCGCCAACGGUCUCAACUAUGACACGCAAAACGCGUGCUCCGUUGAACGGAGAUUAUCAUG, ≤ -4.2; to GGAUCCUCUCGAUCUAACAAAAAAGACAAAUUUGCCACAAAGCUUGAGAGCAUCUUCGGAUGCAGAGGCGGCAGCCUUCGGUGACGCCAUAGCGCCAACGUUCUCAACUACGACACGCAAAACGCGUGCUCCGUUGAAUGGAGUUUAUCUUG, ≤ -4.2.
Regarding GGAUCCUCUCGAUCUAACAAAAAAGCCGAAUCUGCCACAAAGCUUGAGAGCAUCUUCGGAUGCAGAGGCGGCAGCCUUCGGUGGCGCGAUAGCGCCAACGUUCUCAACUAUGACACGCAAAACGCGUGCUCCGUUGAAUGGAGUUUAUCAUG, the “polymerase ribozyme fitness (log ratio)” value was -3.84.
To GGAUCCUCUCGAUCUAACAAAAAUGACCAAUCUGUCUCAAAGCUUGAGAGCAUCUUCGGAUGCAGAGGCGGCAGCCUUCGGUGGCGCGAGAGAGCCAACGUUCUCAACUAUGACACGCAAAACGCGUGCUUCGUUGAAUGGAGUCUAUCAUG belongs ≤ -4.2; to GGAUCCUCUCGAUCUAACUAAAAAGACAAAUCUGCCACAAAGCUUGAGAGCAUCUUCGGCUGCAGAGGCGGCAGCCUUCGGUGGCGAGAUUGCGCCAACGUUCUCAACUAUGACACGCAAAACGCGUGCUCCGGUGAAUGGAGUUUAUCAUG, ≤ -4.2; to GGAUCCUCUCGAUCUUGCAAAAAAGACAAAUCUGCCACAAAGCUUGAGAGCAUCUUCGGAUGCAGAGGCGGCAGCCUUCGGUGGUGCGGUAGCGCCAACGUUCUCAACUAUGACACGCAAAACGCGUGCUCCGUUGAAUGGAGUUUAUCAUG, ≤ -4.2.
Take GGAUCCUCUCGAUCUAACAAAAAAGACAAAUCUGCCAUAAAGCUUGAGAGCAUCUUCGGAUGCAGAGGCGGCAGGCUUCGGAGGCGCGAUAGCGCCAACGUUCUCAGCUAUGACACGCAGAACGCGUGCUCCAAUGAAUGGAGUUUAUCAUG: the “polymerase ribozyme fitness (log ratio)” value is ≤ -4.2.
With GGAUCCUCUAGAACUAACAAAAAAGACAAAUCUGGGGCAAAGCUUGAGAGCAUCUUCGGAUGCAGAGGCGGCAGCCUUCGUUCGCGCGAUAGCGCCAACGUUCUCAACUAUGACACGCAAAACGCGUGCUCCGUUGAAUGGAGUUUAUCAUG, the “polymerase ribozyme fitness (log ratio)” value is ≤ -4.2.
As for GGAUCCUCUCGAUCUAACAAAAAAGACAUAUCUGCCACAACUCUUGAGAGCAUCUUCGCAUGCAGAGGCGGCAGCCUUCGGUGGUGCGAUAGCGCCAACUUUCUCAGCUAUGACACGCAAAACACGUGCUCCGUUGAAUGGAGUUUAUCAUG, the “polymerase ribozyme fitness (log ratio)” value was ≤ -4.2.
To GGAUCCUCUCGAUCUAACAAAAGAGACAAAUCUGCCACAAAGCUUGAGAGCAUCUUCGGAAGCAGAGGCGGCAGCCUUCGGUGGCGCGAUAGCGCCAACGUUCUCAACUAUGACACGCAAAACGCGUGCUCCGUUGAAUGGAGUUUAUCAUG belongs ≤ -4.2; to GGAUCCUCUCGAUGUAACAAAAAAGACAAAUCUGCCACACAGCUUGAGAGCUUCUUCGGAUGCAGAGGCGGCAGCCUUCGGUGGCGCGAUUGCGCCAACGUUCUCAACUAUGACACGCAAAACGCGUGCUCCGUUGAAUGGAGUUUAUCAUG, ≤ -4.2.
GGAUCCUCUCGAUUUAACAAAAAAGACAAAUCUGCCAUAAAGCUUGAGAGCAUCUUCGGAAGCAGAGGCGGCAGCCUUCGGUGGCGCGAUAGCGCCAACGUUCUCAACUAUGACACGCAAAACGCGUGCUCCGUUGAAUGGAGUCUAUCAUG: the “polymerase ribozyme fitness (log ratio)” value is -4.04.
To GGAUCCUCUCGAUCUAACAAAUAAGUCAAAUCUGCCACAAAGCUUGAGAGCAUCUUCGGAUGCAGAGGCGGCAGCCUUCGGUGACGCGAUAGCGCCAACGUUCUCAACUAUGACACGCAAAACGCGUGCUCCGUUGAAUGGAGAUUAUCAUG belongs -4.15; to GGAUCCUCUCGAUCUAACAAAAAAGACAAAUCUGUCACAAAGCUUGAGAGCAUCUUCGAAUGCAGCGGCGGCAGCCUUCGGUGUCGCGAUAGUGCCAUCAUUCUCCACUAUGACACGCAAAACGCGUGCUCCGUUGAAUGGCGUUUAUCAUG, ≤ -4.2; to GGAUCCUUUCGAUCUAUCAAAAAAGACAAAUCUGCCACGAAGCUUGAGAGCAUCUUCGGAUGCAGAGGCGGCAGCCUUCGGUAGCGCGAUAGCGCCAACGAUCUCAACUAUGACACGCAAAACGCGUGCUCCGUUGAAUGGAGUUUAUCAUG, ≤ -4.2.
